Assay [1] addresses T1, SEZ6 Sushi Domain 5 (amino acids 817-878) on yeast (human, UniProt Q53EL9 836-897).
T1 construct: yeast display
Kind of assay: yeast display, flow cytometry.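 Note: antibody binding to individual SEZ6 domains displayed on yeast, measured by flow cytometry, antibody at 50 nM purified or hybridoma supernatant diluted 1:2, 90 min on ice.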

In assay [2] the target is T2, human SEZ6 on HEK-293T cells (human, UniProt Q53EL9 20-994).
T2 construct: also called h293T-HuSEZ6
Kind of assay: immunohistochemistry.

A further assay has as its target T3, hSEZ6-ECD-His (human, UniProt Q53EL9 20-925).
T3 construct: the whole entry is named; also called recombinant SEZ6-His; human recombinant SEZ6-His
As to the kind of experiment: immunohistochemistry, signal competed by soluble antigen.

In assay [3] the target is T4, SEZ6 Sushi Domain 4 (amino acids 750-813) on yeast (human, UniProt Q53EL9 769-832).
T4 construct: yeast display
As to the kind of experiment: yeast display, flow cytometry.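 Note: antibody binding to individual SEZ6 domains displayed on yeast, measured by flow cytometry, antibody at 50 nM purified or hybridoma supernatant diluted 1:2, 90 min on ice.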

The target in assay [4] is T5, SEZ6 Sushi Domain 2 (amino acids 511-572) on yeast (human, UniProt Q53EL9 530-591).
T5 construct: yeast display
T5 sequence: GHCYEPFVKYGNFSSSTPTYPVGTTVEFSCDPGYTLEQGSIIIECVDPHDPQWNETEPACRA
Kind of assay: yeast display, flow cytometry.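 Note: antibody binding to individual SEZ6 domains displayed on yeast, measured by flow cytometry, antibody at 50 nM purified or hybridoma supernatant diluted 1:2, 90 min on ice.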

Assay [5] has as its target T6, SEZ6 CUB Domain 1 (aa 397-508) on yeast (human, UniProt Q53EL9 416-527).
T6 construct: yeast display
T6 sequence: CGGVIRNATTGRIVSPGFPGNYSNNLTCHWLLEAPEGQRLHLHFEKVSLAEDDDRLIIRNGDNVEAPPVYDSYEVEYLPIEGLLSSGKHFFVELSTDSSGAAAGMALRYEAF
Kind of assay: yeast display, flow cytometry.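 Note: antibody binding to individual SEZ6 domains displayed on yeast, measured by flow cytometry, antibody at 50 nM purified or hybridoma supernatant diluted 1:2, 90 min on ice.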

The target of assay [6] is T7, SEZ6 Sushi Domain 3 (amino acids 690-748) on yeast (human, UniProt Q53EL9 709-767).
T7 construct: yeast display
As to the kind of experiment: yeast display, flow cytometry.

This is an account of results in patent US20190022241A1 (AbbVie / Abbott, published 2019).

B1: SC17.74 (antibody, V domains shown)
VH: QVQLKQSGPGLVAPSQSLSITCTVSGFSLTSYGVDWVRQSPGKGLEWLGVIWGGGSTNYNSALKSRLSITKDNSKSQVFLKMNSLQTDDTAMYYCASGDYDGSLWFAYWGQGTLVTVSA
VL: DIQMTQSSSYLSVSLGGRVTITCKASDHINNWLAWYQQKPGNAPRLLISGATSLETGVPSRFSGSGSGKDYTLSITSLQTEDVATYYCQQYWSTPPTFGAGTKLELK
notes: murine mAb
Consider B1, for which the binding result in assay [1] is given as “binds”.

B2: SC17.140 (antibody, V domains shown)
VH: EVQLQQSGPELMKPGASVKMSCKASGYTFTDYNMHWVKQNQGKSLEWIGEINPNTGGTGYNQKFKGKATLTVDKFSSTAFIELRSLTSEDSAIYYCTRGGYDHYWYFDVWGAGTTVTVSS
VL: QIVLTQSPAIMSASPGEKVTMTCSASSSVSYMHWYQQKSGTSPKRWIYDTSKLASGVPARFSGSGSGTSYSLTISSMEAEDAATYYCQQWSSTPPTFGSGTKLEIK
notes: murine mAb
Consider B2, for which the binding result (in assay [2]; in the assay with hSEZ6-ECD-His; in assay [3]) was “binds” throughout.

B3: SC17.90 (antibody, V domains shown)
VL: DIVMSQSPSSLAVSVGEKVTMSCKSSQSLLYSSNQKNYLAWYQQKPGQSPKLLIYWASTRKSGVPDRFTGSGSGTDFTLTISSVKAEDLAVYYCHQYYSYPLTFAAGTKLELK
VH: QVQLQQPGSVLVRPGASVKLSCKASGYTFTSYWMHWVKQRPGQGLEWIGEIHPNNGSTNYNEKFKGKATLTVDTSSSTAYVDLSSLTSEDSAVYYCARWTLFTYWGQGTLVTVSA
notes: murine mAb; also called SC17.155 (duplicate)
With B3, in assay [4], the binding result is on record as “binds”.

B4: SC17.76 (antibody, V domains shown)
VH: EVQLVESGGDLVKPGGSLKLSCVASGFTFSSYGMSWVRQTPDKRLEWVATISSGGTFTYYPDSVKGRFTVSRDNAKNTLYLQMSSLKSEDTAMYYCSRHGWGWGQGTLVTVSA
VL: DIVITQDELSNPVTSGESVSISCRSSKSLLYKDGKTYLNWFLQRPGQSPQLLIYLMSTRASGVSDRFSGSGSGTDFTLEISRVKAEDVGVYYCQQLVEYPRTFGGGTKLEIK
notes: murine mAb
Consider B4, for which, in assay [5], the binding result is recorded as “binds”.

B5: SC17.122 (antibody, V domains shown)
VH: EVHLVESGGDLVKPGGSLKLSCAASGFTFSSYGMSWVRQTPDKRLEWVATISSGGTYTYYPDSVKGRFTISRDNAKNTLYLQMSSLKSEDTAMYYCSRHGWGWGQGTLVTVSA
VL: DIVITQDDLSNPVTSGESVSISCRSSKSLLYKDGKTYLNWFLQRPGQSPQLLIYLMSTRASGVSDRFSGSGSGTDFTLEISRVKAEDVGVYYCQQLVEYPRTFGGGTKLEIK
notes: murine mAb
Turning to B5, the binding result in assay [5] is “binds”.

B6: SC17.72 (antibody, V domains shown)
VH: EVQLVESGGGLVKPGGSLKLSCAASGFTFSSYGMSWVRQTPEKRLEWVAAINSNGGSTYYPDTVKGRLTISRDNGKNTLYLQMSSLRSEDTALYYCVRDDGYYVFFAYWGQGTLVTVSA
VL: DIQMTQTTSSLSASLGDRVTISCSASQGISNYLNWYQQKPDGTVKLLIYYTSSLHSGVPSKFSGSGSGTDYSLTISNLEPEDIATYYCQQYSKLPYTFGGGTKLEIK
notes: murine mAb
On to B6, for which the binding result in assay [6] is given as “binds”.

B7: SC17.95 (antibody, V domains shown)
VH: EVELQQSGPELVKPGASVKISCKTSGNTYTEYTMQWVKLSHGKSLEWIGGINPNNGITSYNQKFKGKATLTVDKSSSTAYMELRSLKSEDSAVYYCARAGLGNYVWAMDYWGQGASVTVSS
VL: DIQMTQTTSSLSASLGDRVTISCSASQGINNYLNWYQQKPDGTVTLLIYYTSSLHSGVPSRFSGSGSGTDYSLTISNLEPEDIATYYCQQYSKLPWTFGGGTKLEIK
notes: murine mAb
As to B7, in assay [6], the binding result is recorded as “binds”.
